Assay: yeast display, Sf9 membrane polyspecificity reagent, FACS + sequencing; frameworks hold sequencing errors
Summary of the method: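 Sorting gates, low and high (top ~1%), were placed on anti-HA fluorescence to track expression and on streptavidin fluorescence to track reagent binding. A clone's polyreactivity label is taken from the gate it came out of. The reagent was 10% biotinylated, detergent-solubilized Sf9 membrane, applied for 1 hour at 4 °C to galactose-induced yeast display cells.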

Sequence	polyreactivity (PSR sort gate)
QVQLVESGVGLVQAGGSLRLSCAASGSIFYDNAMGWYRQAPGKERELVAVITVSGDSTYYADSVKGRFTISRDNAKNTVYLQMNSLKPEDTAVYYCNTDAISGSHFWRYITFGYLDDYWGQGTQVTVSS	low polyreactivity
QVQLVESGVGLVQAGGSLRLSCAASGSIFYSNAMGRYRQAPGKERELVASIRGSGVSTYYADSVKGRFTISRDNAKNTVYLQMNRLKPEDTAVYYCAARYGRSYFGYYYWGQGTQVTVSS	high polyreactivity
QVQLVESGVGLVQAGGSLRLSCAASGSIFYVYAMGWYRQAPGKERELVAAITNYADSVKGRFTISRDNAKNTVYLQMNSLKPEDTAVYYCAADWWRVEMDYWGQGTQVTVSS	low polyreactivity
QVQLVESGVGLVQAGGSLRLSCAASGSTFGTYDMGWFRQAPGKERELVAAITWIGDTTYYADSVKGRFTISRDNAKNTVYLQMNSLIPEDTAVYYCAAEPNYQYYGPLGYDYWGQGTQVTVSS	low polyreactivity
QVQLVESGVGLVQAGGSLRLSCAASGSTFKYYGMGWYRQAPGKERELVASISSSGTRTYYADSVKGRFTISSDNAKNTVYLQMNSLKPEDTAVYYCAADSYATYFLYDSWGQGTQVSVSS	low polyreactivity
QVQLVESGVGLVQAGGSLRLSCAASGSTFNYYAMGWYRQAPGKERELVAAISSRSSRTFYADSVKGRFTISRDNAKNTVYLQMHSVKPEDTAVYYCAVKKSAPDGDYWGQGTQVTVSS	high polyreactivity
QVQLVESGVGLVQAGGSLRLSCAASGSTFRSNALGWYRQAPGKEREVVAGISSGGGTYYADSVKGRFTISRDNAKNTVYLQMNSLKPEDTAVYYCAKVVYFGWSVQYYYWGQGTQVTVSS	low polyreactivity
QVQLVESGVGLVQAGGSLRLSCAASGSTLFVYAMGRYRQAPGKERELVAAISRGGSTYYADSVKGRFTISRDNAKNTVYLQMNSLKPEDTAVYYCAAVGGYPRYGYWGQGTQVTVSS	high polyreactivity
QVQLVESGVGLVQAGGSLRLSCAASGSTLFVYTKGWSRQAPGKERELVAAITSSGGSTYYADSVKGRFTISRDKAKNTVYLQMNSLKAQDTAVYYCAAKELGSPYDYWGQGTQVTVSS	high polyreactivity
QVQLVESGVGLVQAGGSLRLSCAASGTTIVSYAMGWYRQAPGKEMEFVATISISGTSTYYADSVKGRFTISRDNAKNTVYLQMNSLKPEDTAVYYCAARLRPRGATQFYRYDYWGQGTQVTVSS	high polyreactivity
QVQLVESGVGLVQAGGSLRLSCAASGYTIDWYTMGWYRQAPGKERELVAAISASGVRTYYADSVKGRFTISRDNAKNTVYLQMNSLKPEDTGVYYCNRVYSTSRITQYEFDYWGQGTQVTLSS	low polyreactivity
QVQLVESGVGLVQAGGSLRLSCAASGYTLDNYAMGWYRQAPGKERELVAGITFSGGSTFYADSVKGRFTISRDNAKNTVYLQMNSLKPEDTAVYYCAADAEFQADHKYGYWGQGTQVTVSS	low polyreactivity
QVQLVESGVGLVQAGGSLRLSCAPSGRIFGTYAMVWYRQAPGKERELVASITDRGDSTYADSVKGRFTISRDNAKNTVYLQMNSLKPEDTAVYYCAADGWWHNFYPGTGLDYWGQGTQVTVSS	low polyreactivity
QVQLVESGVGLVQAGGSLSITCAASGRTFAGNSMGSYRQAPGKERELVAAISQGGGSTYYADSVKGRFTISRDNAKNTVYLQMNSRKAEDTAVYYCAAEIPRRWASFATQWYDYWGLGTQVTVSS	low polyreactivity
QVQLVESGVGLVQAGGSVRLSCAASGFTFGYYAMGWYRQAPGKERELVASISSVDNTYYADSVKGRFTISRDNAKNTVYLQMNSLKPEDTAVYYCAARYRDYFVRGGYWGQGTQVTVSS	high polyreactivity
QVQLVESGVGLVQAGGSVRLSCAASGSIFSINAMGWYRQAPGKERELVAAISASGGSTYYADSVKGRFTISRDNAKNTVYLQMNSLKPEDTAVYYCAVYTHDRFSRYDQGDYWGQATQVTVSS	low polyreactivity
QVQLVESGVGLVQAGGTLRISCAASGSTLPGYAMGWYRPAPGKERELVAAITSRGGTTYYADSVKGRFTISRDNAKNTVYLQMNSLKPEDTAVYYCAAEVYYRSRVYPYYYSYDYWGQGTQVTVSS	high polyreactivity
QVQLVESGVGLVQAGGTLRLSCAASGIIISRYTMGWYRQAPGKERELVAAITSSGITYYADSVKGRFTISRDNAKNTVYLQLNSLKPEDTAVYYCARETYGDYVHYDYWGLGTQVTVSS	low polyreactivity
QVQLVESGVGLVQAGRRLRLSCAASGFIFAWNGMGWYRKAPGKERELVAAISWSGGSTYYAVSVKGRFTISRDNEKNTVYLLMNTLKPEETAVYYCYRSWGSRPGSRLEYWGQGTQVTVSS	high polyreactivity
QVQLVESGVGLVQAGRSLRLSCAASGRTFVQYAMGWYRQAPGKERELVARISRRGGSTYYADSVKGRFTISRDKAKNSVYLQMNSLKPEDTAVYYFAADAYPYWYDYWGQGTQVTVSS	high polyreactivity
QVQLVESGVGLVQAGVILRLSCAASGRTFRRNAMGWYRHAPGKERELVAAISWRGGSTYYADSVKGRFTISRDNAKNTVYLQLNSMKPEDTAVYYFAAGFESYDYWGQGTQVTVSS	high polyreactivity
QVQLVESGVRLLQAGGSLRLSCAASGITSDDNTMGWYRQAPGKERELVARIRRTGGGTYYADSVKGRFTISRDNAKNTVYLQINSLKPEDSAVYYCAAVPSWGYRFNRVPYLWVDYWGQGTQVTVSS	low polyreactivity

Sequence	polyreactivity (PSR sort gate)
QVQLVESGVRLVQAGGSLLLSCAASGFTFHKNDMGWYRQAPGKERELVATISKSGGSTYYADSVKGRFTISRDNAMNTVYLQMNSLKPEDTAVYYCARRYRDYGRYGYWGQGTQVTVSS	high polyreactivity
QVQLVESGVRLVQAGGSLRLSCAASGSIFAKYTMGWYRPAPGKERELVAAITRSGTSTRYADSVKGRFTISRDNAKNTVYLQLNSLKPEDTAVYYCAASLYSWGQGTQVTVSS	high polyreactivity
QVQLVESGVVLVQAGGSLRLSCAASGRIFRYYVMGWYRQAPGKERELVAAITNDGGNTNYADSVKGRFTISRDNEKNTVYLQMNSLKPEDTAVYYCNADRTHDRNPYTYATFDYWGQGTQVTVSS	low polyreactivity
QVQLVESLGGLVQAGGRLRLSSAASGLIFPRNAMGWYRQAPGKERELVAVISRSGTTTYYADSVKGRFTISRDNAKKTVYFQMNSLIPEDTAVYYCASAPSHVYRARFYYWGQGTQVTVSS	high polyreactivity
QVQLVESRGCLVQAGGSLRLSCSASGYIFVYYAMGWYRQAPGKEWELVAAISRGGSTYYADSVKGRFTISRDNAKNTVYLQMNSLKPEDTAVYYCNKVLPYGREYGYCGQGTQVTVSS	high polyreactivity
QVQLVESRGGIVQAGGSLRLSCAASGRIFGWYAMGWYRQAPGKERELVAAITSSVGRTYYADSVKGRFTISRDNAKNTVYLQMNSLKPEDTAVYYCAKDLYTYYYFEYDYWGQGTQVTVSS	low polyreactivity
QVQLVESRGGLVLAGGSLRLSCAASGSIFPSYAMGWYRQAPGKERELVASISYRGGSTYYADSVKGRFTISRDNAKNTVYLQMNSLKPEDTAVYYCAATKERYYGWSRLTGYYRGNYWGQGTQVTVSS	high polyreactivity
QVQLVESRGGLVPAGGSLRLSCAASGSTVRDYTMGRYRQAPGKEREVGAAITRRSASTYYADSVKGRFTISRDNAKNTVYLQLNSLKPEDTAVYYCAVRTNGPFEYWGQGTQVTVSS	high polyreactivity
QVQLVESRGGLVQAGGSLGLSCAASGSTFGYYAMGWYRQAPGKERELVAGISTGGSTYYAYSVKGRFTISRDNAKNTVYFQINSLKPDDTAVYYCAATRYNRWPIKFDYWGQGTQVTVSS	high polyreactivity
QVQLVESRGGLVQAGGSLRLSCAASGFIFTRYVMGWYRQAPGKERELVAGISTRGARTYYADSVKGRFTISRDNAKNTVYLQIHSLTPEDTAVYYCNKDWSRGWNYEYDYWGQGTQVTVSS	high polyreactivity
QVQLVESRGGLVQAGGSLRLSCAASGFILVIYAMGWYRQAPRKERELVAAITSDGSTNYADSVKGRFTISRDNAKNSVYLQMNSLKPEDTAVYYCAADAVNPLDYWGLGTQVTVSS	low polyreactivity
QVQLVESRGGLVQAGGSLRLSCAASGFTFGNYAMGWYRQAPGKEREMVAAISWSGGSTYNADSVKGRFTISRDNAKKTVYLQMNSLKPEDTAVYYCNAIRGSLWESDYWGQGTQVTVSS	high polyreactivity
QVQLVESRGGLVQAGGSLRLSCAASGLIFLHNAMGWYRQAPGKERELVAAIRDGDSTNYADSVKGRFTISRDNAKNTVYLQMNSLKPEDTAVYYCAKDPTLVAYAPGRYDYWGQGTQVTVSS	low polyreactivity
QVQLVESRGGLVQAGGSLRLSCAASGLNFSYYAMGWYRQAPGKERELVAAIDWNSGSTYYADSVKGRFTISRDNAKNTVYLQMNSLKPEDTAVYYCAAYGSFWYARFGYWGQGTQVTVSS	low polyreactivity
QVQLVESRGGLVQAGGSLRLSCAASGRIFAYYAKGWYRPAPGKERELVAAIRGSGGSTYYAESVKGRFTISRDNAKNTVYLQMNSLKPEDTAVYYCAARTQPKKFYYWGQGTQVTVSS	high polyreactivity
QVQLVESRGGLVQAGGSLRLSCAASGRIFLRNAMVWYRQAPGKERELVASIDRSGGSTYYADSVKGRFTISRDNAKNTVYLQMNSLKPEDTAVYYCAAAYWYLYYYWGQGTQVTVAS	low polyreactivity
QVQLVESRGGLVQAGGSLRLSCAASGRIFRYYAMGWYRQAPGKERELVAAITWRGGNTRYADSVKGRFTISRDNAKNTVYLPMNSLKTEDTAVYYCAARGQSAYSIWSYYYWGQGTQVTVSS	high polyreactivity
QVQLVESRGGLVQAGGSLRLSCAASGRIFWVNAMGWYRQAPGKERELVAVISRGGSTTYADSVKGRFTISRDNAKNTVYLQMNSLKPEDTAVYYCAADAYRHAFLYYGYDYWGQGTQVTVSS	low polyreactivity
QVQLVESRGGLVQAGGSLRLSCAASGRIYNYYEMGWYRQAHGKESELVAAITWRGGTTYYADSVKGRFTISRDNAKNTVYLQMNSLKPEDTAVYYCATTPRSYRFPPPVGYGYWGQGTQVTVSS	high polyreactivity
QVQLVESRGGLVQAGGSLRLSCAASGRTLTAYAMGWYRQAPGKERELVDDISFGGGTTYYADSVKGRFTISSDNAKNTVYLQMNSLKPEDTAVYYCAAANYVDIWDFYWFDDYWGQGTQVTVSS	high polyreactivity
QVQLVESRGGLVQAGGSLRLSCAASGRTVRRYAMGWYRQAAGKARELVASISRGSSTNYADSVKGRFTSSRDNAKNTGYLQMNSLKPEHTAVYYCAALGWSARYRYDYWGQGTQVTVSS	high polyreactivity
